Measured values: the supplement of paper PMC10065799, “High-throughput profiling of sequence recognition by tyrosine kinases and SH2 domains using bacterial peptide display” (eLife, 2023)

System: c-Abl (mouse)
Test: phosphorylation enrichment, bacterial display (enrichment ratio); higher = better substrate or ligand; peptides without Tyr show the background
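Further: 11-residue human phosphosite peptides and single-mutation variants displayed on the E. coli surface, counted by deep sequencing, each peptide's frequency after selection divided by its frequency in the unselected input library; frequency after pTyr selection over input frequency; kinase dosed for 20-30% of maximal phosphorylation in three min.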

Row | Sequence | phosphorylation enrichment
1 | PCNLIYFGEHP [TRPV6_Y201] | 2.89
2 | KYGTNYRVGSS [CPO_Y278] | 0.466
3 | RLQKLYLDRNL [IGFALS_Y248] | 1.16
4 | DRTVNYVLKCR [PLEKHG4_Y1068] | 0.764
5 | VDGSVYKLPPS [GCK_Y413_H416P] | 0.661
6 | ALVFLYFCIIF [SIGLEC12_Y494] | 0.957
7 | FSQNICIQNRN [PKP2_Y631_Y631C_YF] | 0.719
8 | DELDKYSEALK [TPM1_Y60] | 0.676
9 | FDDIAYIRKAL [PIK3CA_Y1021_T1025A] | 0.5
10 | VHVEVYDPPSP | 0.949
11 | QITQVYGFYDE [PPP2CA_Y127] | 1.01
12 | LKGQVYILGQE [ASS1_Y359_R363Q] | 1.77
13 | YHLGKYLQEVL [KLB_Y910_Y906H] | 0.685
14 | SRGLAYPARSA [LEMD2_Y122_P126S] | 0.382
15 | FLEKFYKFGCR [NNMT_Y25_S29C_YF] | 0.884
16 | NTVDFYDLFGG [PTPN11_Y63_G60V_YF] | 0.576
17 | GLSSAYGGLTS [KRT8_Y427] | 0.543

Row | Sequence | phosphorylation enrichment
18 | FGSSSYRGAGG [RPA2_Y14_G15R_YF] | 0.998
19 | VYLGAYDHFLP [SLC22A5_Y486_R488H] | 2.69
20 | YVSLIYTNYEA [GSTP1_Y109_I105V] | 1.87
21 | GVMLLYFGRFN [ADGRD1_Y85_T82M_YF] | 0.65
22 | HNQDDYSYPSR [LDLR_Y845_G844D] | 0.776
23 | HNGDRYFKGIV [DCX_Y64_R59H] | 0.585
24 | EVASVYQSFQP [MAVS_Y92_YF] | 2.19
25 | RGRDSYGGPPR [RBMX_Y190] | 0.934
26 | ARGMEYLASKN [FGFR1_Y613_K618N] | 0.385
27 | RASSVYTRSTG [CCR5_Y339] | 0.721
28 | DSYSSYCNAVA [SLC20A2_Y436] | 0.771
29 | DFTEAYNPKIK [CLK1_Y305_YF] | 0.893
30 | RIVTTYIWERE [DNM2_Y463_R465W] | 0.745
31 | LDFNEYFRNLN [HPRT1_Y198_D201N_YF] | 1.24
32 | PYSNPYENSLI [EPOR_Y489] | 0.762
33 | KAWGIYDCQQP [CYP3A7_Y75_V71A] | 1.12

Target: FGFR1 (UniProt P11362)
Test: as above

FGFR1, sequence (P11362 whole entry, looked up): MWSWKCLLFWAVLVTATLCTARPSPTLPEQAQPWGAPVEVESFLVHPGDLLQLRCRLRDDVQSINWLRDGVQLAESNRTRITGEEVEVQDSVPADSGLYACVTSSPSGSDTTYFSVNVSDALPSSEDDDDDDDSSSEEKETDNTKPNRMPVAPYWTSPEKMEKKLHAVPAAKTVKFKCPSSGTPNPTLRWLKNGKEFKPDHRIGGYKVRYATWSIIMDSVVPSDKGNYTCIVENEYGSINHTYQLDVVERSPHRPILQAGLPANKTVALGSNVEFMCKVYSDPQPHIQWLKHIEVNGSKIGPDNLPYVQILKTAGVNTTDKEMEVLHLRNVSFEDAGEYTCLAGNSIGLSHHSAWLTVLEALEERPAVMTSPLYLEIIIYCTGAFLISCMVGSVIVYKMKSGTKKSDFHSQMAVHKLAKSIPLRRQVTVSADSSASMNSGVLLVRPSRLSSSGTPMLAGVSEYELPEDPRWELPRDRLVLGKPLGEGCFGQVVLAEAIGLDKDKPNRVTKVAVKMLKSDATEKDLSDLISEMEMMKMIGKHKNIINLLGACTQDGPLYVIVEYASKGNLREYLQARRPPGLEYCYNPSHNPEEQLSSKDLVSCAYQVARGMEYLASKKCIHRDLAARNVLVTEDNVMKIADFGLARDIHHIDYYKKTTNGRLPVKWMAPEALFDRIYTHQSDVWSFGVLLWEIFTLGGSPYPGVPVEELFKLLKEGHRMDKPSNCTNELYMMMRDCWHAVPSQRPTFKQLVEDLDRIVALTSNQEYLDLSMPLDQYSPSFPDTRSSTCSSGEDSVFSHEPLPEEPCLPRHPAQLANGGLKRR

Row | Sequence | phosphorylation enrichment
34 | PCNLIYFGEHP [TRPV6_Y201] | 1.76
35 | KYGTNYRVGSS [CPO_Y278] | 0.338
36 | RLQKLYLDRNL [IGFALS_Y248] | 0.776
37 | DRTVNYVLKCR [PLEKHG4_Y1068] | 0.517
38 | VDGSVYKLPPS [GCK_Y413_H416P] | 0.523
39 | ALVFLYFCIIF [SIGLEC12_Y494] | 0.58
40 | FSQNICIQNRN [PKP2_Y631_Y631C_YF] | 0.395
41 | DELDKYSEALK [TPM1_Y60] | 0.451
42 | FDDIAYIRKAL [PIK3CA_Y1021_T1025A] | 0.358
43 | VHVEVYDPPSP | 0.672
44 | QITQVYGFYDE [PPP2CA_Y127] | 0.615
45 | LKGQVYILGQE [ASS1_Y359_R363Q] | 0.939
46 | YHLGKYLQEVL [KLB_Y910_Y906H] | 0.527
47 | SRGLAYPARSA [LEMD2_Y122_P126S] | 0.288
48 | FLEKFYKFGCR [NNMT_Y25_S29C_YF] | 0.631
49 | NTVDFYDLFGG [PTPN11_Y63_G60V_YF] | 0.458
50 | GLSSAYGGLTS [KRT8_Y427] | 0.351

Row | Sequence | phosphorylation enrichment
51 | FGSSSYRGAGG [RPA2_Y14_G15R_YF] | 0.551
52 | VYLGAYDHFLP [SLC22A5_Y486_R488H] | 1.6
53 | YVSLIYTNYEA [GSTP1_Y109_I105V] | 6.43
54 | GVMLLYFGRFN [ADGRD1_Y85_T82M_YF] | 0.53
55 | HNQDDYSYPSR [LDLR_Y845_G844D] | 0.82
56 | HNGDRYFKGIV [DCX_Y64_R59H] | 0.286
57 | EVASVYQSFQP [MAVS_Y92_YF] | 0.604
58 | RGRDSYGGPPR [RBMX_Y190] | 0.604
59 | ARGMEYLASKN [FGFR1_Y613_K618N] | 0.407
60 | RASSVYTRSTG [CCR5_Y339] | 0.48
61 | DSYSSYCNAVA [SLC20A2_Y436] | 0.904
62 | DFTEAYNPKIK [CLK1_Y305_YF] | 0.464
63 | RIVTTYIWERE [DNM2_Y463_R465W] | 0.595
64 | LDFNEYFRNLN [HPRT1_Y198_D201N_YF] | 1.2
65 | PYSNPYENSLI [EPOR_Y489] | 0.806
66 | KAWGIYDCQQP [CYP3A7_Y75_V71A] | 0.53

System: c-Src
Test: as above

Row | Sequence | phosphorylation enrichment
67 | PCNLIYFGEHP [TRPV6_Y201] | 12.2
68 | KYGTNYRVGSS [CPO_Y278] | 0.389
69 | RLQKLYLDRNL [IGFALS_Y248] | 0.851
70 | DRTVNYVLKCR [PLEKHG4_Y1068] | 0.43
71 | VDGSVYKLPPS [GCK_Y413_H416P] | 1.46
72 | ALVFLYFCIIF [SIGLEC12_Y494] | 0.741
73 | FSQNICIQNRN [PKP2_Y631_Y631C_YF] | 0.44
74 | DELDKYSEALK [TPM1_Y60] | 0.422
75 | FDDIAYIRKAL [PIK3CA_Y1021_T1025A] | 0.436
76 | VHVEVYDPPSP | 0.719
77 | QITQVYGFYDE [PPP2CA_Y127] | 6.85
78 | LKGQVYILGQE [ASS1_Y359_R363Q] | 1.28
79 | YHLGKYLQEVL [KLB_Y910_Y906H] | 0.298
80 | SRGLAYPARSA [LEMD2_Y122_P126S] | 0.431
81 | FLEKFYKFGCR [NNMT_Y25_S29C_YF] | 0.446
82 | NTVDFYDLFGG [PTPN11_Y63_G60V_YF] | 2.56
83 | GLSSAYGGLTS [KRT8_Y427] | 0.469

Row | Sequence | phosphorylation enrichment
84 | FGSSSYRGAGG [RPA2_Y14_G15R_YF] | 0.659
85 | VYLGAYDHFLP [SLC22A5_Y486_R488H] | 6.2
86 | YVSLIYTNYEA [GSTP1_Y109_I105V] | 4.34
87 | GVMLLYFGRFN [ADGRD1_Y85_T82M_YF] | 0.343
88 | HNQDDYSYPSR [LDLR_Y845_G844D] | 0.597
89 | HNGDRYFKGIV [DCX_Y64_R59H] | 0.585
90 | EVASVYQSFQP [MAVS_Y92_YF] | 8.85
91 | RGRDSYGGPPR [RBMX_Y190] | 0.8
92 | ARGMEYLASKN [FGFR1_Y613_K618N] | 0.394
93 | RASSVYTRSTG [CCR5_Y339] | 0.875
94 | DSYSSYCNAVA [SLC20A2_Y436] | 0.84
95 | DFTEAYNPKIK [CLK1_Y305_YF] | 0.571
96 | RIVTTYIWERE [DNM2_Y463_R465W] | 0.405
97 | LDFNEYFRNLN [HPRT1_Y198_D201N_YF] | 0.585
98 | PYSNPYENSLI [EPOR_Y489] | 1.15
99 | KAWGIYDCQQP [CYP3A7_Y75_V71A] | 4.8

Target: Jak2 (UniProt O60674)
Test: as above

Jak2, sequence (O60674 whole entry, looked up): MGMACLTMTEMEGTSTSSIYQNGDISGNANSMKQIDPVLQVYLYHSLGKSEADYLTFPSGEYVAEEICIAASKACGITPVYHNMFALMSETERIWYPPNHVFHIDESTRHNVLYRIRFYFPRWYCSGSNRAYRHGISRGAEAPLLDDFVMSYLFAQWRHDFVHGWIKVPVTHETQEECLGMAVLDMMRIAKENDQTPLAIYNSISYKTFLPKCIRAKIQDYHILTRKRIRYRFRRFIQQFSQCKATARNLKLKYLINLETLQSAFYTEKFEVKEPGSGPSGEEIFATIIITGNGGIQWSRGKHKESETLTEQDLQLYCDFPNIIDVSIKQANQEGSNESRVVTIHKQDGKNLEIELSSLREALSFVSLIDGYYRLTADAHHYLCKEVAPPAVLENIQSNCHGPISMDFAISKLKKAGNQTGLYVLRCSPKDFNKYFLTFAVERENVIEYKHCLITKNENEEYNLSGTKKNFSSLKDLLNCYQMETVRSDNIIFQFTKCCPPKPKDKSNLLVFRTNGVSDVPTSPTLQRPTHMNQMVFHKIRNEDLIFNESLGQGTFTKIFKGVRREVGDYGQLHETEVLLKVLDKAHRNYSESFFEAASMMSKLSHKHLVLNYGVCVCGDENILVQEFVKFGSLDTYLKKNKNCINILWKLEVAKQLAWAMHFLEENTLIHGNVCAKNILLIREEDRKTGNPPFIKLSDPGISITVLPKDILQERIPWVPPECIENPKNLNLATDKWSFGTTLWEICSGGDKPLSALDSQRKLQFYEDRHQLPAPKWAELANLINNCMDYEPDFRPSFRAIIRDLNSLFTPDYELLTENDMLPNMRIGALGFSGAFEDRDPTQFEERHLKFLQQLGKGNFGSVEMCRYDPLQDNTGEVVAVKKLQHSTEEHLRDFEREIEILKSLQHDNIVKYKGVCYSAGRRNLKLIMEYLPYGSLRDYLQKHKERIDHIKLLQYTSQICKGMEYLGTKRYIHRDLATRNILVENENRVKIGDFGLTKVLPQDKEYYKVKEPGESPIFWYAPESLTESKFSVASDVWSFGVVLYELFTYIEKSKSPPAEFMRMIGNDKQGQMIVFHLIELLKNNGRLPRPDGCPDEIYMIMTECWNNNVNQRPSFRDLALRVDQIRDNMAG

Row | Sequence | phosphorylation enrichment
100 | PCNLIYFGEHP [TRPV6_Y201] | 3.44
101 | KYGTNYRVGSS [CPO_Y278] | 0.403
102 | RLQKLYLDRNL [IGFALS_Y248] | 1.63
103 | DRTVNYVLKCR [PLEKHG4_Y1068] | 0.898
104 | VDGSVYKLPPS [GCK_Y413_H416P] | 0.598
105 | ALVFLYFCIIF [SIGLEC12_Y494] | 1.01
106 | FSQNICIQNRN [PKP2_Y631_Y631C_YF] | 0.841
107 | DELDKYSEALK [TPM1_Y60] | 0.977
108 | FDDIAYIRKAL [PIK3CA_Y1021_T1025A] | 0.52
109 | VHVEVYDPPSP | 1.27
110 | QITQVYGFYDE [PPP2CA_Y127] | 1.06
111 | LKGQVYILGQE [ASS1_Y359_R363Q] | 1.98
112 | YHLGKYLQEVL [KLB_Y910_Y906H] | 0.87
113 | SRGLAYPARSA [LEMD2_Y122_P126S] | 0.312
114 | FLEKFYKFGCR [NNMT_Y25_S29C_YF] | 0.961
115 | NTVDFYDLFGG [PTPN11_Y63_G60V_YF] | 0.926
116 | GLSSAYGGLTS [KRT8_Y427] | 0.506

Row | Sequence | phosphorylation enrichment
117 | FGSSSYRGAGG [RPA2_Y14_G15R_YF] | 0.692
118 | VYLGAYDHFLP [SLC22A5_Y486_R488H] | 1.39
119 | YVSLIYTNYEA [GSTP1_Y109_I105V] | 1.32
120 | GVMLLYFGRFN [ADGRD1_Y85_T82M_YF] | 1.15
121 | HNQDDYSYPSR [LDLR_Y845_G844D] | 0.751
122 | HNGDRYFKGIV [DCX_Y64_R59H] | 0.529
123 | EVASVYQSFQP [MAVS_Y92_YF] | 1.06
124 | RGRDSYGGPPR [RBMX_Y190] | 0.557
125 | ARGMEYLASKN [FGFR1_Y613_K618N] | 0.463
126 | RASSVYTRSTG [CCR5_Y339] | 0.655
127 | DSYSSYCNAVA [SLC20A2_Y436] | 0.859
128 | DFTEAYNPKIK [CLK1_Y305_YF] | 0.988
129 | RIVTTYIWERE [DNM2_Y463_R465W] | 0.989
130 | LDFNEYFRNLN [HPRT1_Y198_D201N_YF] | 3.21
131 | PYSNPYENSLI [EPOR_Y489] | 1.05
132 | KAWGIYDCQQP [CYP3A7_Y75_V71A] | 1.12
